Legend:
[1] = biological target: RSV F protein of subtype A (strain A2) on recombinant mKate-RSV virus (Respiratory syncytial virus subtype A …, UniProt P03420 26-574); assay: cell-based or functional assay
[2] = biological target: RSV F protein of subtype B (18537) on recombinant mKate-RSV virus (Respiratory syncytial virus subtype B …, UniProt P13843 26-574); assay: cell-based or functional assay
[3] = biological target: T1, RSV F subtype B, furin-cleaved ectodomain stabilized in the prefusion conformation (DS-Cav1) (Respiratory syncytial virus subtype B); assay: BLI, IgG on AHQ sensor, 100 nM antigen
T1 construct: extracellular domain; Trimeric soluble antigen; also called Prefusion subtype B

[4] = biological target: T2, RSV F subtype A, furin-cleaved ectodomain stabilized in the prefusion conformation (DS-Cav1) (Respiratory syncytial virus subtype A, UniProt P03420 26-524); assay: BLI, IgG on AHQ sensor, 100 nM antigen
T2 construct: extracellular domain; Trimeric soluble antigen; also called Prefusion subtype A

Binder | Neut IC50 (µg/ml) subtype A [1] [µg/mL] | Neut IC50 (µg/ml) subtype B [2] [µg/mL] | Kd [3] [pM] | Kd [4] [pM]
ADI-18901 (antibody, V domains shown) VH: EVQLVESGAEVKRPGASVKISCKASEYAFTAHYLHWVRQAPDQGLEWMGWISPKSGGTNYAQKFHGRVSMTSDTSISTVYMELSSLTSDDTAVYYCARSSLVGASPNFDFWGQGTLVTVSS VL: QSVLTQPPSVSAAPGQRVTISCSGSSSNIGNNYVSWYQQLPGTTPKVLIYDNNQRPSGIPDRFSGSKSGTSATLAISGLQTGDEAVYYCGTWDASLSAAMVFGGGTKLTVL | 5.65 | 5.76 |  | 
ADI-18894 (antibody, V domains shown, full-length IgG from yeast; also called Antibody Number 249; Ab # 249) VH: QVQLVQSGGGVVQPGRSLKHSCAASGFTFNNYAIHWVRQAPGKGLEWVAAISYDGSNEYYSNSVKGRFTISRDNSKYTLYLQMNSLRPEDTAVYYCARGASYYYVSSDLGYWGQGTLVTVSS VL: QPVLTQPPSVSGAPGQRVTISCTGSSSNIGSGYDVHWYQQLPGTAPKVVIYGNINRPSGVPERFSGSKSGTSASLAITGLQAEDEADYYCQSYDSLSASWVFGGGTKLTVL | 0.345 | 0.123 | 327 | 
ADI-18907 (antibody, V domains shown, full-length IgG from yeast; also called Antibody Number 262; Ab # 262) VH: QVQLVQSGPEVKKPGSSVKVSCKASGGTFSSYAITWVRQAPGQGLEWMGGIIPSFDRVDYSRNFKGRVTFTADKSANTAYMELTNVRSDDTAVYYCARGCCGAVAGFQHWGQGTGVTVSS VL: DIVLTQTPATLSLSPGETATLSCRASQSVTTYLAWYQQKPGQAPRLLIYDASNRATGVPTRFSGSGSGTDFTLTISSLEPEDYAIYYCQQRTTGVTFGGGTKVEIK | 3.3 | > 10 | 204 | 
ADI-18944 (antibody, V domains shown, full-length IgG from yeast) VH: QVQLVQSGAEVKKPGASVKVSCKTSGYTFSNYGISWLRQAPGQGLEWMAWISPYNGNTKSAQRFQGRVIMTTDTSTRTAHMEVKSLRTDDTATYYCARDPAVDAIPMLDYWGQGTTVTVSS VL: DIQVTQSPLSLPVTLGQPASISCRSSQSLVYTDGNTYLSWFQQRPGQSPRRLIYRVSHRDSGVPDRFTGSGSGTDFTLIIRRVEAEDVGVYYCMQGTHWPLTFGGGTKVEIK | 0.026 | 0.074 | 337 | 
ADI-18972 (antibody, V domains shown, full-length IgG from yeast; also called Antibody Number 320; Ab # 320) VH: QVQLVQSGAEVKKPGASVKVSCKTSGYTFSNYGISWLRQAPGQGLEWMAWISPYNGNTKSAQRFQGRVIMTTDTSTRTAHMEVKSLRTDDTATYYCARDPAVDAIPMLDYWGQGTLVTVSS VL: DIQMTQSPLSLPVTLGQPASISCRSSQSLVYTDGNTYLSWFQQRPGQSPRRLIYRVSHRDSGVPDRFTGSGSGTDFTLIIRRVEAEDVGVYYCMQGTHWPLTFGGGTKLEIK | 0.016 | 0.107 | 368 | 
ADI-18949 (antibody, V domains shown, full-length IgG from yeast) VH: QVQLVQSGAEVKKPGASVKVSCKTSGYTFSNYGISWLRQAPGQGLEWMAWISPYNGNTKSAQRFQGRVIMTTDTSTRTAHMEVKSLRTDDTATYYCARDPAVDAIPMLDYWGQGTMVTVSS VL: EIVLTQSPLSLPVTLGQPASISCRSSQSLVYTDGNTYLSWFQQRPGQSPRRLIYRVSHRDSGVPDRFTGSGSGTDFTLIIRRVEAEDVGVYYCMQGTHWPLTFGGGTKVEIK | 0.04 | 0.076 | 308 | 
ADI-18910 (antibody, V domains shown, full-length IgG from yeast; also called Antibody Number 265; Ab # 265) VH: QVQLVQSGAEVKKPGSSVKVSCKASGGTFSSYAISWVRQAPGQGLEWMGGIIPMFDIVDYAQKFQGRVTITADESTNTAYMELTSLRSEDTAVYYCARTAALGPPGTIVGYMDVWGKGTTVTVSS VL: DIVMTQSPLSLPVTPGEPASISCRSSQSLLQSNGYNYLDWYLQKPGQAPQLLIYLGSNRASGVPDKFSGSGSGTDFTLKISRVEAEDVGVYYCMQTLQTPWTFGQGTKVEIK | > 10 | 0.767 | 10600 | 
ADI-18962 (antibody, V domains shown, full-length IgG from yeast) VH: QVQLVQSGGGLVKPEGSLRLSCAASGFTFSSYSMNWVRQAPGKGLEWVSSISSSSSYIYYADSVKGRFTISRDNAKNSLYLQMNSLRAEDTAVYYCARVSTELGYYYMDVWGKGTTVTVSS VL: not shown | 4.44 | > 10 | 22800 | 
ADI-18959 (antibody, V domains shown, full-length IgG from yeast; also called Antibody Number 310; Ab # 310) VH: QVQLVQSGAEVKKPGASVRVSCKVYGHTLSELSMHWVRQGPEGGLEWMGAFDHEDGEGIYPQKFQGRITMTADISTDTAHMELRSLRSEDTAVYYCATPTPVGATDFWGQGTLVTVSS VL: DIRVTQSPSSLSASVGDRVTITCRASQSISSYLNWYQQKPGKAPKLLIYAASTLQRGGPSRFSGSGSGTDFTLSISSLQPEDFATYYCQQTYIIPYTFGQGTKLEIK | 7.21 | 2.26 |  | 4680
ADI-18957 (antibody, V domains shown, full-length IgG from yeast) VH: EVQLLESGGGLVKPGESLRLSCAASGFTLSGYYMNWVRQAPGRGLEWVSSISGGSNYINYADSVKGRFTISRDNAKNSLYLQMNSLRVEDTAVYYCARVHVDLVTTIFGVDFDFWGQGTLVTVSS VL: QSVLTQPPSVSGAPGQRVTISCTGSSSNIGAGYDVHWYQQLPGTAPKLLIYGNTNRPAGVPDRFSGSKSGSSASLAITGLQAEDEADYYCQSYDSSLSGAIFGGGTKLTVL | 1.34 | 6.08 | 324 | 
ADI-18931 (antibody, V domains shown, full-length IgG from yeast; also called Antibody Number 285; Ab # 285) VH: EVQLVESGGGLQKPGRSLRLSCSASGFTFGDYAMSWFRQAPGKGLEWVGFIRSKAYVGTAEYAASVKGRFTISRDDSKSIAYLHMNSLKTEDTAVYYCTRDDILTGFYDRSYYYGIHVWGQGTTVTVSS VL: EIVMTQSPVTLSVSPGERATLSCRASQSVNSNLAWYQKKPGQAPRLLIYSASTRATGVPARFSGSGSGTEFTLTVSSLQSEDFAVYYCQQYDNWPPYTFGQGTKVEIK | > 10 | > 10 | 488 | 
ADI-18956 (antibody, V domains shown, full-length IgG from yeast) VH: QVQLVQSGAELKKPGSSVKVSCKASADTFKSYAINWVRQAPGQGLEWMGEFIPIFGVSPSAQKFQGRVTITADRSTSTAYMELSSLKSDDSAIYYCATRLYTLGSPFDNWGQGTTVTVSS VL: QPVLTQPRSVSGSPGQSVTISCTGTSSDVGDYDYVSWYQHLPGEVPKLIVYNVIKRPSGVPDRFSGSKSGNTASLTISGLQAEDEADYYCCSYAGRYIYVFGSGTKLTVL | > 10 | > 10 | 224 | 
ADI-18925 (antibody, V domains shown) VH: QVQLVESGGGVVQPGRSLRLSCAASGFPFSLYAMHWVRQAPGKGLEWVAFISYDGSNKYYADSVKGRFTISRDSSKNTLYLQMDSLTPEDTAVYYCAKPIVGPTTGYFDYWGPGTLVTVSS VL: EIVLTQSPATLSLSPGERATLSCRASQSVSSYLAWYQQKPGQAPRLLIYDASNRATGIPARFSGSGSGTDFTLTISSLEPEDFAVYYCQQRSNWYTFGQGTKVEIK | > 10 | > 10 |  | 
ADI-18940 (antibody, V domains shown, full-length IgG from yeast) VH: QVQLVQSGAGVKKPGASVRVSCTASGYTFTDYFINWVRQAPGGGLEWMGWVNPLSGATRYAQNFAGRVTMTTDTSITTGYLDLRNLRLDDTAVYFCASQSSPYTPGAMDVWGQGTTVTVSS VL: DIVMTQSPSSLSASVGDRVSITCRTSQTISGYISWYQKKPGKAPKLLIYAASNMYSGVPSRFSGSESGTDFTLTITSLQPEDFATYFCQLNSGALFTFGPGTKVDIK | 0.023 | 0.063 | 1560 | 
ADI-18929 (antibody, V domains shown) VH: QVQLVQSGGGLVKPGGSLRLSCAASGFTFNDYYMNWIRQAPGKGLEWVSYISSSGETKYYADSVKGRFTISRDNAKNSLYLEMNSLRVEDTAVYYCARDAVIVVGPVAVHYQYYADVWGKGTTVTVSS VL: not shown | 0.261 | 0.369 |  | 
ADI-18943 (antibody, V domains shown, full-length IgG from yeast) VH: QVQLQESGPGLVKPSETLSLTCSVSGASVTSREYYWGWIRQAPGKGLQWIASIHHSPFQSDGNPSLTSRVSSSVVTSKNQLALRLSSVTAADTAVYYCAGAFWEVWTGLYSPPFDFWGQGILVTVSS VL: EIVMTQSPGTLSLSPGERATLSCWASQTVSSGYLAWYQQKPGQAPRLLIYGASTRATDIPDRFSGSGSGTGFTLTISRLEPEDLAVYYCQQYSSSPLTFGGGTKVEIK | 0.027 | 0.043 | 725 | 
ADI-18965 (antibody, V domains shown) VH: QVQLVQSGAEVKKPGASVKISCKASGYPFSSYPMHWVRQAPGQRLEWMGWINVDNENTKYSWKFRGRVTITRDTSASTVYMELSSLISEDTAVYYCGRDWDGAIRVLDYWGQGTLVTVSS VL: DIVMTQTPDSLAVSLGERATITCKSSQSVLFSSDNKNYLAWYQQKPGQPPKLLIYWASIRESGVPDRFGGSGSGTHFTLTITSVQAADVAVYYCQQYYGNFPTFGQGTRLEIK | 3.02 | 6.89 |  | 
ADI-18884 (antibody, V domains shown, full-length IgG from yeast; also called Antibody Number 240; Ab # 240) VH: EVQLVESGAEMKKPGASVKVSCKASGYTFTNYAIHWVRQAPGQSLEWMGWINAGNGNTQYSQKFQGRVTFTRDTSASTVYMDLSSLRSEDTAVYYCARGQIVVIPRANFWFDPWGQGTLVTVSS VL: not shown | 0.073 | 0.239 | 204 | 
ADI-18905 (antibody, V domains shown) VH: EVQLVESGPTLVKPSETLSLTCVVSGGSVYRSSNYWAWIRQPPGKGLEWIGSVYHSGNPYSNPSLQSRVSVSIDTSKNQFSLKLYSVTAADSAIYYCACKRADADDVDYVAGLTGFPWYFDVWGRGTLVTVSS VL: EIVLTQSPSTLSASVGDRVTITCRASQSISSWLAWYQQKPGKTPKLLIYKASTLESGVPSRFSGSGSGTEFTLTISSLQPDDFATYYCQQYHVYFPLTFGGGTKVEIK | 0.685 | 3.68 |  | 

— patent publication US20200223906A1 (Adimab, published 2020)
